{
  "source": "paper PMC2967368",
  "key": {"[1]": {"target": "Survivin (UniProt O15392)", "assay": "biotinylated peptide pull-down, immunoblot", "settings": "reference: unmodified H3(1-21) peptide; sites T3"}, "[2]": {"target": "Survivin (UniProt O15392)", "assay": "peptide pull-down, Coomassie staining", "settings": "reference: unmodified H3 peptide; sites T3"}, "[3]": {"target": "Histone-H3 (1-21) peptide phosphorylated at Thr-3 (UniProt P68431)", "assay": "fluorescence polarisation"}},
  "data": [
    {"substance": "Histone-H3 1-21 (from UniProt P68431) H3T3ph peptide", "values": [
      {"measurement": "binding against the reference", "setting": "[1]", "result": "stronger"}
    ]},
    {"substance": "Histone-H3 (from UniProt P68431) H3T3ph peptide", "values": [
      {"measurement": "binding against the reference", "setting": "[2]", "result": "stronger"}
    ]},
    {"substance": "xISD complex containing INCENP(1-58), Survivin and Dasra-A (from UniProt Q4V7H8 1-296)", "values": [
      {"measurement": "fold enhancement of binding by T3ph against unmodified H3", "setting": "[3]", "result": 20, "unit": "fold"}
    ]}
  ]
}
